Biological target: T1, GST-HDC (human histidine decarboxylase, amino acid residues 1-477, fused to GST) (human, UniProt P19113 1-477)
T1 sequence: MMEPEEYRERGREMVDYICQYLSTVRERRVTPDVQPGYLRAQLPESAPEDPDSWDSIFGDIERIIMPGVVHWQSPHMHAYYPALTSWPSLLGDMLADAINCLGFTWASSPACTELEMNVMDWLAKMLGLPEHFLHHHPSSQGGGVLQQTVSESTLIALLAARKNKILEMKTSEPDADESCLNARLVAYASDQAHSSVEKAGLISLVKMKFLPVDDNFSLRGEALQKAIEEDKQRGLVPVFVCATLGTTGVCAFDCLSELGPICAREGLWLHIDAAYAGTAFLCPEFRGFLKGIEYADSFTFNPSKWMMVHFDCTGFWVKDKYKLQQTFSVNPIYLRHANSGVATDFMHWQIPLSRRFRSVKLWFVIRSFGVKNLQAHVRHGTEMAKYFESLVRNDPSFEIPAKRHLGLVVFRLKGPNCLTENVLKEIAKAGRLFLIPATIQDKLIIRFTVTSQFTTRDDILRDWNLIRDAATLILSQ
Assay: cell-based or functional assay

- IC50 (inhibition of HDC enzyme activity, standard fluorescence polarization HDC assay): 228 µM
Binder: HF [dipeptide histidine-phenylalanine]
